Measurements published in PMC3492551 (Nature structural & molecular biology, 2012).
Each block holds one molecule with its values, some of them ahead of it.

Legend:
MPP8 50-118 = MPP8 50-118 (UniProt Q99549); assay: fluorescence polarization titration; settings: reference: H3K9me3 peptide; sites S10
UHRF1 126-280 [1] = biological target: UHRF1 126-280 (UniProt Q96T88); assay: biotin-peptide streptavidin pulldown, western blot; settings: sites S10
UHRF1 126-280 [2] = biological target: UHRF1 126-280 (UniProt Q96T88); assay: histone peptide microarray; settings: sites S10
[3] = biological target: T1, UHRF1 tandem Tudor domain (TTD), residues 126-280 (human, UniProt Q96T88 126-280); assay: NMR titration
T1 sequence (looked up): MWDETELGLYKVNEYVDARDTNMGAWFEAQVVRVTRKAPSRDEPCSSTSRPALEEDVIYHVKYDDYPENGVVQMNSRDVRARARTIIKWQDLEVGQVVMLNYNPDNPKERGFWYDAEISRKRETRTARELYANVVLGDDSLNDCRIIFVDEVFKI

KD (MPP8 50-118): lost; reference 0.23
Molecule: histone H3 1-20 (from UniProt P68431) H3K9me3S10p peptide

Molecule: histone H3 (from UniProt P68431) H3K9me2S10p peptide
binding against the reference (UHRF1 126-280 [1]; reference: H3K9me2 peptide): same
binding against the reference (UHRF1 126-280 [2]; reference: H3K9me2 peptide): same

Molecule: histone H3 (from UniProt P68431) H3K9me3S10p peptide
binding against the reference (UHRF1 126-280 [1]; reference: H3K9me3 peptide): same
binding against the reference (UHRF1 126-280 [2]; reference: H3K9me3 peptide): same

binding result [3]: binds
Molecule: ARTKQTARKST (not fully specified; trimethyl-lysine at 9; phosphoserine at 10) [doubly modified H3 peptide (residues 1-11, ARTKQTARKme3SpT)]
